Assay results from the DeepSol protein solubility set.

Assay: soluble on expression in E. coli; label from the status in PepcDB or PDB records

Sequence | soluble on expression in E. coli
MGSDKIHHHHHHMTWSATWRLSLELRQLRYLVGVVDAGSVSRAAQSLHVAQPALSAQIARLEEELGARLLIRSVRGVVPTEAGTAVLRQARLILKQVDAIAELAHEADADPTGSVSLGLPWTVRSVVGLPLLHQVRERLPQVRLEIIEGPSPALAMQTAQGKLDLAVVFENTPDNSLVLKPLATESLLLVGQRGSLVGRHNLKLEELAGLPLLMLSRPNGVREDIERQCAKRGIRLKIVAEINAPSLLIDAVRGGLGYSVLPACGIEQACRDGLLDAITLEGGSMQRTAHLGTSKLFALSRAAEHTAALLQESVAHAIGDRRWQATSPNEAD | not soluble
MEIVRTKQFSLKPMDSEEAVLQMNLLGHSFYVYTDAETNGTNIVYSRKDGKYGLIETNLEHHHHHH | not soluble
MFQKILIANRGEIAVRIMKTCQKLGIRTVAIYSEADENALHVKMANEAYLVGGPRVQESYLNLEKIIEIAKKTNAEAIHPGYGLLSENPSFPVRCKEEGIVFIGPSEEIITKMGSKIESRIAMQAADVPVVPGITTNIETAEEAIEIAKQIGYPLMLKASAGGGGIGMQLMETEQTLTKAFESNKTRAQNFFGNGEMYLERYIADAHHIEIQLLADTHGNTVYLWERECSVQRRNQKVIEEAPSPFLDEGTRKAMGEIAVQAAKALGYTNAGTVEFLVDEQKNFYFLEMNTRLQVEHPVTEEITGLDLVEQQLLIAYGEKLSFTQDDIKRSGHAIEARIYAEDPKTFFPSPGKITDLTLPTNVRIDHFLENQVTITPFYDPMIAKVIAHGETREEAISKLHDALEELKVEGIKTNTPMLLQVLEDDVFKSGIYTTGFVTKQLVKK | not soluble
MQSKTAKLPDNDRNRPLIQTFNDAQQKVWFDDALLHEDPSQCCNPEFWQQNGKVLGSATGRGTTWFVQLQQTQGALRHYRRGGLFGKLVADSYWFTGWEKTRSYQEFMLLNHLRDAGVNVPRPIAARVQKHGLLYKADLLSEKVPNARDLVSILQESPISDELYRKIGREIRKMHDAQVNHTDLNIHNILIDDQEKVWIIDFDKCYVQIGDSWKQGNLKRLKRSFEKEVCKRGINWSLEAFAIISSYKHEE | not soluble
MIDTNLLRVTVCDEGELEKSTTHFIGSRKIEPEQWITWASECKYLPESDAVALCATLIDRLSLEANVVPVSSPVTICGDIHGQFYDLLELFKTGGTVPNTKYVFMGDYVDRGHYSLETVTLLFCLLLKYPNQITLLRGNHESRRISNVYGFYDECQNKYGHGNVHKWFCKVFDVLPIGALIDESVLCVHGGLSPDIRTIDSLMLLDRAQEVPNKGPLCDIMWSDPDDDVEDWVISQRGAGFVFGAKVTEEFLMNNDLSLLCRSHQLVDEGFKYMFNEKLATVWSAPNYCYRCGNAAAVFEIDGNNRSTKYFNAVPDGSREKPDRVVAPYFL | not soluble
MSLADSTELTTSATLGAQDAMAFGISEDPAFFQILSANLYSNQKLAMVRETLCNSWDAHIEGNKTDIPIHVTIDKDGFLIFRDYGSGIPKDKIQEVYGVYGASTKKANTASTGGFGLGCKSPMAYTDSFTVTSMCDGTKTVYHIAKSSVETNGKPGIIPIVSVPTEESGLEVKIQLQSEDILEIDSYIRAIVLHGEIKCIYCNQYTGPNTVELLPVLGMSFEPGSYNLDHSTWHKYYMGGHSIFIRYGNVMYPALDTPATHEALKLVKQFMQVINCSRIVVQAAPSSLAVAPSRETLSSQKMTEDGIVNLAVALVDKMEADIKARLPNAIEYIGKAIKEYSPHRFEVNSYLPYTNLVPDVIVSRYMSSTLFSKQYAHLCKKWGNMEIDRQLEHPALAHFSGEGHHHHHH | soluble
MGSDKIHHHHHHMSSILRLDRLRQFIGELATLLDSRPDESTLLAQAHPLLAELVHQDDWLPEDCARPDPQRYQQYLLHVDSRQRFSVVSFVWGPGQITPVHDHRVWGLIGMLRGAEYSQPYAFDAGGRPHPSGARRRLEPGEVEALSPRIGDVHQVSNAFSDRTSISIHVYGANIGAVRRAVFSAEGEEKPFISGYSNSRLPNIWDLSKENPA | not soluble
MRGSHHHHHHGSLVPRGSMVAADAPAAGTDITNQLTNVTVGIDSGTTVYPHQAGYVKLNYGFSVPNSAVKGDTFKITVPKELNLNGVTSTAKVPPIMAGDQVLANGVIDSDGNVIYTFTDYVNTKDDVKATLTMPAYIDPENVKKTGNVTLATGIGSTTANKTVLVDYEKYGKFYNLSIKGTIDQIDKTNNTYRQTIYVNPSGDNVIAPVLTGNLKPNTDSNALIDQQNTSIKVYKVDNAADLSESYFVNPENFEDVTNSVNITFPNPNQYKVEFNTPDDQITTPYIVVVNGHIDPNSKGDLALRSTLYGYNSNIIWRSMSWDNEVAFNNGSGSGDGIDKPVVPEQPDEPGEIEPIPEK | soluble
MNIKRNIIFALESRKKDGVLIVENVPIRMRVNFASQRIEFTTGYRIDVAKWDADKQRVKNGCTNKLKQSASEINAALLGYYTELQEVFKRFEVAEVMPSPADVKSAFNARHRSDDVQTEQTSDKPDASAEFYKAFDEFVRVCGRQNDWTHATYEKFAAVKNHLRSFRADLSFSFFNEVGLTEYVRYLREVRKMRNSTIGKQLSFLKWFLRWSFGQGIHSNNAYDTFRPKLKDTQKKIIFLTWEELTKLREFEIPPAKQSLDRVRDVFLFQCFTGLRYSDVYNLRRSDIKEDHIEVTTIKTSDSLVIELNKHSKAILEKYQDVVFEHDKALPVITNQKMNEYLKELAELAGINEPIRQTYYKGNERIDEVTPKYALLGTHAGRRTFICNALALGIPPQVVMKWTGHSDYKAMKPYIDIADDIKANAMSKFNQL | not soluble
MSEQLVTPENVTTKDGKINLLDLNRQQMREFFKDLGEKPFRADQVMKWMYHYCDNFDEMTDINKVLRGKLKEVAEIRAPEVVEEQRSSDGTIKWAIAVGDQRVETVYIPEDDRATLCVSSQVGCALECKFCSTAQQGFNRNLRVSEIIGQVWRAAKIVGAAKVTGQRPITNVVMMGMGEPLLNLNNVVPAMEIMLDDFGFGLSKRRVTLSTSGVVPALDKLGDMIDVALAISLHAPNDEIRDEIVPINKKYNIETFLAAVRRYLEKSNANQGRVTIEYVMLDHVNDGTEHAHQLAELLKDTPCKINLIPWNPFPGAPYGRSSNSRIDRFSKVLMSYGFTTIVRKTRGDDIDAACGQLAGDVIDRTKRTLRKRMQGEAIDIKAV | not soluble
MSLDSSLFRKPSPRPLRQPTTPFHLQKTLILDLDETLIHSTSRPIHYPGGSSGGGGLLGLSVGGVFGSGRANEGHTVEVVVNGRSTMYHVYKRPYVDHFLKKVASWYTLVIFTASMPEYADPVIDWLDGGRNLFARKLYRENCHVQPNGSYIKDLTLVEKDLSRVCFMDNSPVSYSWNKGRLFSTWRSLEPDRMGTANALPIEGWTSDPNDEALLHSIPVLDSLRFVNDVRRVLGIRGAARARSEGHHHHHH | soluble
MGSDKIHHHHHHMEKIVQTAGRNALGEFAPEFAHFNDDVLFGENWNNQDIDVKTRSIITVVALMASGITDSSLIYHLQNAKEHGVTQKEIAAVITHVAFYAGWPKAWAVFNLAKEVWEAGEGDLPYEEEAMRAHAKEMAFPIGAPNDGFAQYFSGRSFLAPISTSQIGIFNVTFEPGCRNNWHIHHAKSGGGQILVCVAGRGYYQEEGKEAVEMKPGDCINIPTGVKHWHGAAPDEWFSHLAIEVPGVDCSNEWCEAVSEKEYAGLR | not soluble
MSVSNMPPIDRAEQSTAHEIQQAKVIDLNDRVLNLDNPDDKMISAFANYAVQTENWQQNALQALTSDKKGLTPEKLLVLQDHVLNYNVEVSLVGTLARKIVAAVETLTRS | soluble
MGSDKIHHHHHHMTSELETAANPEKLKRIVIEPVTRVEGHGKVTLLLDEDNRVQQARFHIVEFRGFEKFIQGRPYTEVPVLVQRLCGICPVSHNLAASKAMDVIVGAAPPPAADKLRRLMHMGQMLQSHALHFFHLSSPDLLFGFDAEVGKRNIAGLAMQFPDIARQGVGLRKFGQEVIRMTSGKRVHGTGVIPGGMSKNLSREDRDWLLAEIDQVVRWSQQAVNLIKRLYGEHKDFYNNFGYYRSSFMSLVREDGAMDLYHGNLRAIDDKGQTIFDHVDYSHYGDYIHEEVKSWSYMKFPFIRSQGREEGWYRVGPLARVNNCDFIPTPLAEAERKIFKEYDGGRASHATLSFHWARMIEMLHSAEAIRELLHDDDLLSDDLVNIGERQLRGVGVIEAPRGTLIHHYRINEDEQIVRANLIVATTHNNQAMNEAIRQVSLQYLDGQQLTEGLLNYIEVAIRAFDPCLSCATHALGKMPLEVELVDAEGARVKRIIKDSDGGYRA | not soluble
